Seven substances from paper PMC10873344 can be followed below.

The target in assay [1] is mouse SEL1L S658P/F668Y-FLAG (mouse). Put plainly: co-IP; anti-FLAG agarose IP from lysates of SEL1L-/- HEK293T cells transfected with SEL1L-FLAG variants, blots for endogenous partners; 150 mM NaCl, 0.2% NP-40, 0.1% Triton X-100, 25 mM Tris-HCl pH 7.5, overnight at 4 C.
Assay [2] addresses SEL1L^S658P, endogenous mouse (homozygous KI liver) (mouse (endogenous in liver)). The experiment in a line: co-IP; IP of endogenous SEL1L or HRD1 (home-made antibody, protein A agarose) from livers of 5-week-old WT, HET and KI mice; 150 mM NaCl, 1% NP-40, 25 mM Tris-HCl pH 7.5.
Assay [3] concerns the target HRD1 (HMG-CoA reductase degradation 1), endogenous human, Q86TM6-3. Put plainly: co-immunoprecipitation (FLAG-agarose IP, Western blot quantitation). The conditions noted are these: SEL1L-/- HEK293T cells; n = 3; mean ± SEM; parent: est. 1.0; read off a plot. A general note: In western blotting, separated proteins are transferred to a membrane and probed.
Assay [4] deals with OS9 (Osteosarcoma amplified 9), endogenous human (UniProt Q13438). The description is as above. The conditions noted are these: SEL1L-/- HEK293T cells; n = 3; mean ± SEM; parent: est. 1.0; read off a plot.
The target in assay [5] is HRD1 (HMG-CoA reductase degradation 1), endogenous human, Q86TM6-3. The description is as above. The conditions noted are these: SEL1L-/- HEK293T cells; n = 3; mean ± SEM; parent: est. 1.0; read off a plot. The source holds these as a separate data set.
In assay [6] the target is OS9 (Osteosarcoma amplified 9), endogenous human (UniProt Q13438). The assay is described as above. The conditions noted are these: SEL1L-/- HEK293T cells; n = 3; mean ± SEM; parent: est. 1.0; read off a plot. The source holds these as a separate data set.

Sequence of UniProt Q13438 (Q13438 26-667): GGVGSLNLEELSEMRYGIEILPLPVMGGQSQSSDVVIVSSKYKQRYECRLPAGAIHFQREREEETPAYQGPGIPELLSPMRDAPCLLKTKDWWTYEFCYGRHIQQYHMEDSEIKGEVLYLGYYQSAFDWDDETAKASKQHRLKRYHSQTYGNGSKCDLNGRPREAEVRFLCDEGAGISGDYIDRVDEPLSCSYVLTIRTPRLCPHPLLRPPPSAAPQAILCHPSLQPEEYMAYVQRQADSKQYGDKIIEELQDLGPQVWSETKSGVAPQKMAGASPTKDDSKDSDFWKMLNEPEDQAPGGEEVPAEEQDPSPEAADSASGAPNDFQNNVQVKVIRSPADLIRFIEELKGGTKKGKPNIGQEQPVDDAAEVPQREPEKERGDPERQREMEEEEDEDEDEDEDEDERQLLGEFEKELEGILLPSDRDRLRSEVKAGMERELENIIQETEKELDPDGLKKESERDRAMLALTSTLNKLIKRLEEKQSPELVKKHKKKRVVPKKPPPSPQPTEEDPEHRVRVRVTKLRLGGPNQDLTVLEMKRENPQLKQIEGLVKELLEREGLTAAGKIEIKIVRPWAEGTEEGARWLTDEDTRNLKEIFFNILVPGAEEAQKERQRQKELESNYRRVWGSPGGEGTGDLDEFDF
Sequence of HRD1 (HMG-CoA reductase degradation 1), endogenous human, Q86TM6-3 (Q86TM6 other isoform, or with tags, fused parts or gaps): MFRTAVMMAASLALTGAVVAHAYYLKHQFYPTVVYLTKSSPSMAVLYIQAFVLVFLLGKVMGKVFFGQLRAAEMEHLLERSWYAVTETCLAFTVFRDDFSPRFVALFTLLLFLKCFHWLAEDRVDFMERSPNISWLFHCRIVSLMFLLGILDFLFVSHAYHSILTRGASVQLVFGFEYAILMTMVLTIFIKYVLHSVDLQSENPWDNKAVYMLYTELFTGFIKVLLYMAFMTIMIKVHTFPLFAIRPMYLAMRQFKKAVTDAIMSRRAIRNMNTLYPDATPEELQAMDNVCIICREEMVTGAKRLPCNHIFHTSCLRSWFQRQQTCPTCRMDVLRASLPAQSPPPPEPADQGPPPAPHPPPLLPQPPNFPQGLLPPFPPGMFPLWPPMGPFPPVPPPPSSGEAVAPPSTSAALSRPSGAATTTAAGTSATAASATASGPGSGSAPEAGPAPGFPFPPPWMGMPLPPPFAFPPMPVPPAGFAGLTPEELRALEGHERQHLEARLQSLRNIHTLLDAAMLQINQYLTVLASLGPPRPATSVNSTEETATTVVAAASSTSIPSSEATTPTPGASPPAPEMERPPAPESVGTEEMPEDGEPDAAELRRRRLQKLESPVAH

“HRD1 (HMG-CoA reductase degradation 1), endogenous human (from UniProt Q86TM6-3 1-616) (enzyme)” displayed a fold increase against SEL1L S658P in assay [1] of 2 fold.
In turn, “HRD1, endogenous mouse (liver) (from UniProt Q9DBY1 1-612) (enzyme)” returned a fold reduction against WT and HET livers in assay [2] of 5 fold.
“mouse SEL1L (WT)-FLAG (from UniProt Q9Z2G6-1) F668A”: the values for the response in assay [3] and in assay [4] were 0.07 a.u and 1 a.u, respectively.
“mouse SEL1L (WT)-FLAG (from UniProt Q9Z2G6-1) F668Y”: the response in assay [5] came out at 0.9 a.u; in assay [6], 1 a.u.
Regarding “mouse SEL1L (WT)-FLAG (from UniProt Q9Z2G6-1) S658P”, the response in assay [3] turned out to be 0.15 a.u; in assay [4] it was 1 a.u; in assay [5] it was 0.17 a.u; in assay [6], 0.95 a.u.
Consider “mouse SEL1L (WT)-FLAG (from UniProt Q9Z2G6-1) S658P; F668A”, for which the response came to 0.11 a.u in assay [3] and 0.97 a.u in assay [4].
For “mouse SEL1L (WT)-FLAG (from UniProt Q9Z2G6-1) S658P; F668Y”, the response in assay [6] is 0.95 a.u.
